Assay results published in paper PMC3717379 (Biochemistry, 2013).
Where two headings read alike, the source gives them in different places. No end group written: not given here. IANBD = IANBD fluorescent probe (code IAN) attached to the cysteine

Assays:
[1] = molecular target: SP22, 22 residue long E. coli alkaline phosphatase signal peptide with cysteine at position 22 (E. coli); assay: fluorescence polarisation
[2] = molecular target: monocysteine SecA mutant SecA-506C (E. coli) (UniProt P10408); assay: FRET or BRET
[3] = molecular target: monocysteine SecA mutant SecA-458C (E. coli) (UniProt P10408); assay: FRET or BRET
SecA (Escherichia coli) [4] = molecular target: SecA (Escherichia coli) (UniProt P10408); settings: cited from earlier work
SecA (Escherichia coli) [5] = molecular target: SecA (Escherichia coli) (UniProt P10408); settings: cited from earlier work; remark: listed apart in the source
[6] = molecular target: monocysteine SecA mutant SecA-340C (E. coli) (UniProt P10408); assay: FRET or BRET
SecA-340C = SecA-340C (Escherichia coli, UniProt P10408, C885S/C887S/C896S/C98S/T340C); type: binding
SecA-458C = SecA-458C (Escherichia coli, UniProt P10408, C885S/C887S/C896S/C98S/S458C); type: binding
SecA-506C = SecA-506C (Escherichia coli, UniProt P10408, C885S/C887S/C896S/C98S/M506C); type: binding
[7] = molecular target: monocysteine SecA mutant SecA-402C (E. coli) (UniProt P10408); assay: FRET or BRET
[8] = molecular target: monocysteine SecA mutant SecA-696C (E. coli) (UniProt P10408); assay: FRET or BRET
wildtype SecA = wildtype SecA (Escherichia coli, UniProt P10408); assay: Fluorescence anisotropy binding of IAN-labeled signal peptide to wildtype SecA
[9] = molecular target: monocysteine SecA mutant SecA-59C (E. coli) (UniProt P10408); assay: FRET or BRET
[10] = molecular target: wildtype SecA (Escherichia coli) (E. coli, UniProt P10408 1-901); assay: fluorescence polarisation

For “monocysteine SecA mutant SecA-506C (from UniProt P10408 1-901) (natural protein)”, the Kd [1] was 1500 nM, the E FRET with SP22 (AF568-AF647 dye pair) [2] was 0.67 and the E FRET with SP41 (AF568-AF647 dye pair) [2] was 0.69.

Molecule “monocysteine SecA mutant SecA-458C (from UniProt P10408 1-901) (natural protein)” has a Kd [1] of 3000 nM, an E FRET with SP22 (AF488-AF568 dye pair) [3] of 0.45 and an E FRET with SP41 (AF488-AF568 dye pair) [3] of 0.45.

For SecA (from UniProt P10408), the Kd (SecA (Escherichia coli) [4]) is given as 2200 nM and the Kd (SecA (Escherichia coli) [5]) is given as 1 nM.

In the case of “monocysteine SecA mutant SecA-340C (from UniProt P10408 1-901) (natural protein)”, the Kd [1] is reported as 1100 nM, the E FRET (AF488-AF568 dye pair) [6] is reported as 0.78 and the E FRET (IAE-IAN dye pair) [6] is reported as 0.12. For the same molecule, the E FRET with SP22 (AF488-AF568 dye pair) [6] was 0.64 and the E FRET with SP41 (AF488-AF568 dye pair) [6] was 0.23.

Molecule MKQSTIALALLPLLFTPVTKAC-NH2 [SP22] has a Kd (SecA-340C) of 1100 ± 400 nM, a Kd (SecA-458C) of 3000 ± 1700 nM and a Kd (SecA-506C) of 1500 ± 700 nM.

Work on “monocysteine SecA mutant SecA-402C (from UniProt P10408 1-901) (natural protein)” yielded an E FRET (AF488-AF568 dye pair) [7] of 0.31 and an E FRET (IAE-IAN dye pair) [7] of 0.19.

Molecule “monocysteine SecA mutant SecA-696C (from UniProt P10408 1-901) (natural protein)” has a Kd [1] of 2500 nM, an E FRET (AF488-AF568 dye pair) [8] of 0.23 and an E FRET with SP22 (AF568-AF647 dye pair) [8] of 0.42. It also gave an E FRET with SP41 (AF568-AF647 dye pair) [8] of 0.41.

Work on “MCKQSTIALALLPLLYTPVTKARTPEMPVLENRAAQGDITA-NH2 [SP41]” yielded a Kd (wildtype SecA) of 6200 ± 800 nM, a Kd (SecA-340C) of 6200 ± 4300 nM and a Kd (SecA-458C) of 4800 ± 600 nM. It also gave a Kd (SecA-506C) of 6300 ± 1000 nM.

Molecule “monocysteine SecA mutant SecA-59C (from UniProt P10408 1-901) (natural protein)” has an E FRET (IAE-IAN dye pair) [7] of 0.4, an E FRET (AF568-AF647 dye pair) [9] of 1 and an E FRET (IAE-IAN dye pair) [9] of 0.38.

In the case of MKQSTIALALLPLLFTPVTKAC(IANBD)-NH2 [SP22, 22 residue long E. coli alkaline phosphatase signal peptide with cysteine at position 22], the Kd [10] is reported as 1400 ± 200 nM.
